Measured values published in patent US6960559 (UNIVERSITY OF ZURICH, dated 2005).
The star is where a group is joined. Cbz = O=C(OCc1ccccc1)*

What follows are binders tested against T1, C6 plasma membrane associated metalloendoprotease (rat C6 glioblastoma cells) (rat) (assay: cell-based or functional assay).

Binder | IC50 of C6 cell spreading on CNS myelin [µM]
Cbz-Gly-Phe-Phe-OMe (SMILES COC(=O)[C@H](Cc1ccccc1)NC(=O)[C@H](Cc1ccccc1)NC(=O)CNC(=O)OCc1ccccc1) [cbz-GFF-OCH3] | 5
Cbz-Gly-Leu-Phe-NH2 (SMILES CC(C)C[C@H](NC(=O)CNC(=O)OCc1ccccc1)C(=O)N[C@@H](Cc1ccccc1)C(N)=O) [cbz-GLF-NH2] | 5

Biological target: T1, C6 plasma membrane associated …
Assay: cell-based or functional assay
Remark: another data set of the same source

Binder | IC50 on CNS myelin [µM], half maximal inhibition of C6 cell spreading [µM]
Cbz-Gly-Phe-NH2 (SMILES NC(=O)[C@H](Cc1ccccc1)NC(=O)CNC(=O)OCc1ccccc1) [carbobenzoxy-Gly-Phe-amide] | 600
Cbz-Ala-Phe-NH2 (SMILES C[C@H](NC(=O)OCc1ccccc1)C(=O)N[C@@H](Cc1ccccc1)C(N)=O) [cbz-AF-NH2] | 600
Cbz-Phe-Ala-NH2 (SMILES C[C@H](NC(=O)[C@H](Cc1ccccc1)NC(=O)OCc1ccccc1)C(N)=O) [cbz-FA-NH2] | 600
Cbz-Tyr-Tyr-OH (SMILES O=C(N[C@@H](Cc1ccc(O)cc1)C(=O)N[C@@H](Cc1ccc(O)cc1)C(=O)O)OCc1ccccc1) [carbobenzoxy-tyrosine-tyrosine] | 300
Cbz-Gly-Phe-Phe-NH2 (SMILES NC(=O)[C@H](Cc1ccccc1)NC(=O)[C@H](Cc1ccccc1)NC(=O)CNC(=O)OCc1ccccc1) [Carbobenzoxy-Gly-Phe-Phe-amide] | 8
Cbz-Gly-Phe-Phe-OH (SMILES O=C(CNC(=O)OCc1ccccc1)N[C@@H](Cc1ccccc1)C(=O)N[C@@H](Cc1ccccc1)C(=O)O) [cbz-GFF] | 300
Cbz-Ala-Phe-Tyr-NH2 (SMILES C[C@H](NC(=O)OCc1ccccc1)C(=O)N[C@@H](Cc1ccccc1)C(=O)N[C@@H](Cc1ccc(O)cc1)C(N)=O) [cbz-AFY-NH2] | 20
H-Ala-Phe-Tyr-NH2 [AFY-NH2] | 1000
Cbz-FAFY-NH2 (SMILES C[C@H](NC(=O)[C@H](Cc1ccccc1)NC(=O)OCc1ccccc1)C(=O)N[C@@H](Cc1ccccc1)C(=O)N[C@@H](Cc1ccc(O)cc1)C(N)=O) [carbobenzoxy-Phe-Ala-Phe-Tyr-amide] | 3
H-FAFY-NH2 [FAFY-NH2] | 300
